This data set is described as follows: yeast display, Sf9 membrane polyspecificity reagent, FACS + sequencing; frameworks hold sequencing errors. The method in brief:
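Galactose induction of a Saccharomyces cerevisiae BJ5465 synthetic nanobody display library ran 36–48 hours. The cells were then stained for 1 hour at 4 °C with 10% biotinylated, detergent-solubilized Sf9 membrane reagent, pulled down on streptavidin microbeads and FACS-sorted into low and high (top ~1%) gates on expression and reagent-binding fluorescence. Labels for polyreactivity follow the gate of origin.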
With “QVQLVESGGGLVQAGGSLRLSCAASGSIFSTYAMGWYRQAHGKERELVAAISRSGGSTYYADSVKGRFTISRDNAKNTVYLQMNSLKPEDTAVYYCAKVGRRQRYDYWGQGTQVTVSS”, the “polyreactivity (PSR sort gate)” value is “high polyreactivity”.
To “QVQLVESGGGLVQAGGSLRLSCAASGSILYRYTMGWYRQAPGKERELVAAITKRGGRTYYADSVKGRFTISRDNAKNTVYLQMNSLKPEDTAVYYCAAKYYTGGSFEMYYWGQGTQVTVSS” belongs “high polyreactivity”.
“QVQLVDSGGGLVQAGGSLRLSCAASGFIFDVYAMGGYRQAPGKERQLVAAISVSSTNYADSVKGRFTISRDNAKNTVYLQMNSLKPEDTAVSYCAADTYTYFLASYLYGQYDYWGQGTQVTVSW”: the “polyreactivity (PSR sort gate)” value is on record as “low polyreactivity”.
To “QVQLVEAGGGLDQPGGSLRLSCAASGSTFYVNTRRWYIQAPGQELELVAAISSTGSSTYFADSVKGRFTISRDNAKNTVYLQMNSLKPEDTAVYYCAAESYRWWYLYDYYYWGQGTQVTVSS” belongs “high polyreactivity”; to “QVHLVESGGGLVQAGGTLRLRCAASGSTFERYVMGWYRHPLGKKGSWLPVLNHNGCSTYYAESVKGRFTISRDNAKNTVYLQMNSLKQEVTAVYYCAAYFRTVLDYGSWGQGTQVTVSS”, “low polyreactivity”.
As for “QVQLVESGGGLVQAGGSLRLSCAASGRIFGRYAMGWYRQAPGKERELVASITYRGGGTYYADSVKGRFTISRDNAKNTVYLQMNSLKAEDTAVYYCAAALSNVRNVRSPYDYWGQGTQVTVSS”, the “polyreactivity (PSR sort gate)” value is “high polyreactivity”.
In the case of “QVQLVESGGGLVQAGGSLRLSCAASGRTFPVNVMGWYRQAPGKERELVAAITWSGDSTYYADSVKGRFTISRDNAKNTVYLQMNSVKPEDTAVYYCATDYSGLRYDYWGQGTQVTVSS” it was “low polyreactivity”.
“QVQLQESGGSLVQAGGSLRLSCAASGSISYPRTMGWYRQAPGKEREFVAGIGVGGTTYYADSVKGRFTISRDNAKITVYLQMNSLKPEDTAVYYCARRRSGPSVLYYYWGQGTQVTVSS”: the “polyreactivity (PSR sort gate)” value is reported as “low polyreactivity”.
To “QVQLVESGGCLVQAGGSLRLSCAASGRIFGLYAMGWYRQAPGKEREFVAAISSSGSDTYYADSVKGRFTISRDNAKNTVYLQINSLKPDYTAVYYCAKRRLYLCFDYNSSAYEYGYWGQGTQVTVSS” belongs “low polyreactivity”.
To “QVQLVDSGGGLVQAGGSLRLSCAASGSIFRYYAMGWYRQAPGKEREFVAAINTNDAGTYYADSVKGRFTISRDNAKNTVYLQMNSLKPEDTAVYYCAADTGYPFWYDYWGQGTQVTVSS” belongs “high polyreactivity”.
“QVQLVESVGGLVQAGGSLRLSCAASGSIFDVNAMGWYRQAPGKERELVAAITSSGGSTYYADSVKGRFTISRDNAKNTVYLQMNSLKPEDTAVYYCAAYSLYTMYWGQGTQVTVSS”: the “polyreactivity (PSR sort gate)” value is recorded as “low polyreactivity”.
To “QVQLVESCGGLVQAGGSLRLSCAASGLTFYRYAMGWYRQAPGKERELVAAISSADRTYYADSVKGRFTISRDNAKNTVYLQMNSLKPEDTAVYYCAARANYFGWTKSYYYWGQGTQVNVSS” belongs “high polyreactivity”; to “QVQLVESGGGLVQAGGSLRLSCAASGFIFSWYAMGWSRQAPGKERELVAAISHDGGSTYYADSVKGRFTISRDNAKNTVYLQMNSLKPEDTAVYYCAAAFRAAGRTVRYYWGQGTQVTVSS”, “high polyreactivity”; to “QVQLVESGGGLVQAGGSLRLSCAASGSTFTAYAMGWYRQAPGKERELVADISKRSGGTYYADSVKGRFTISRDNAKNTVYLQMNSLKPEDTAVYYCGQGTQVTVSS”, “low polyreactivity”.
In the case of “QVQLVESGGGLVQAGGSLRLSCAASGSIFVDYAMGWYRQAPGKERELVAAITSGGRTNYADSVKGRFTISRDNAKNTVYLQMKSLKPEDTAVYYCNKTRYTNYYTTTFDYWGQGTQVTVSS” it was “low polyreactivity”.
In the case of “QVQLVESGGGLVQAGGSLPLSCAASGRIFRRNAKGWYRPAPGKEREMVAAIRYGGGTTYAHSVKGRFTISRDNAKNTVYLQMNSLKPEDTAVYYCAVGPRASFGYGYWGQGTQVTVSS” it was “high polyreactivity”; in that of “QVQLVESGGGLVQAGGRLRLSCAASGFYLNAMGWYRQAPGKDRELVATITSSATNTYYADSVKGRFTISRDNAKNTVYLQMNSLKPEDTAVYYCNARYTSHTLADGVYLYDYWGQGTQVTVSS”, “low polyreactivity”; in that of “QVQLVESGGGLVQAGGSLRLICAASGRTFNGYAMGWYRQAPGKERELVAAINASGGRTYYADSVKGRFTISRDNAKNTVYLQMNSLKPEDTAVYYCNARRYHWSVYYYDYWGQGTQVTVSS”, “high polyreactivity”.
For the sequence “QVQLEESGGGLVQAGGSLRLICAASGRIFWLNAMGWYRQAPGKEREFVASITYGSDSTYYADSVKGRFTISRDNAKNTVYLQMNSLKPEDTAVYYCNREGWHYGPYVYWGQGTQVTVSS”, the “polyreactivity (PSR sort gate)” value is given as “low polyreactivity”.
In the case of “QVQLVEAGGGLVQAGGSLRLSCAASGSIFGYYAMGWYRQAPGKERELVAAISYRGGSTYYADSVKGRFTISRDNAKNTVYLQMNSLKPEDTAVYYCNAGGRRRIFAHSSTGDYWGQGTQVTVSS” it was “high polyreactivity”; in that of “QVQLVESRGGLVQAGGSLRLSCAASGFTFIGYAMGWYRPEPGKERELVAPITQSGGSTFYADSVKGRFTISRENAKNTVYLQMNSLKPEDTAVDDCNAYRKFRYCGQGTQVTVSS”, “low polyreactivity”; in that of “QVQLVESGGGLVQAGGSLRLSCAASGFIQDLYVMGWYRQAPGKERELVAAISSVGSTYADSVKGRFTISRDNAKNTVYLQMNSLKPEDTAVYYCAKDGTDYDYNYWGQGTQVTVSS”, “low polyreactivity”.
In the case of “QVQLVESGGGLGQAGGSLRLSCAASGFTFRKYVMGWYRQAPGKERALVAAITSGGSTNYADSVKGRFTISRDNAKNTVYLQMNSVIPEDTAVYYCATVPGARVHYPTGDYWGQGTQVTVSS”, the “polyreactivity (PSR sort gate)” value is “high polyreactivity”.
To “QVQLVESGGGLVQAGGSLRLSCAASGRIFDNNAMGWYIQAPGKERELVAAIDWPGGSTDYADSVKGRFTISRDNAKNTVYLQMNSLIPEDTAVYYCVAGNVPYWHGNSYDYWGQGTQVTVSS” belongs “low polyreactivity”; to “QVQLVESGGGLVQAGGSLRLSCADSGGIFNTYAMGWYRQAPGKEREFVAAISRRGGGTYYADSVKGRFTISRDNAKNTVYLQMNSLKPEDTAVYYCAAKRFHEHGYWGQGTQVTVSS”, “high polyreactivity”; to “QVQLVESGGGLVQAGGSLRLSCAASGRTFKYYAMGWARQAPGKERELVATISYNGASTYYADSVKGRFTSSRDNAKNSVYLQMNSQKPEDTAVYYCAAAYLWRGRLGYWGQGTQVTVSS”, “high polyreactivity”.
In the case of “QVQLVESGGGLVQAGGSLRLSCAASGYIFTTNAMGWYRQAPGKERELVAAISSSGGSTYYADSVKGRFTISRDNAKNTVYLQMNSLKPEDTAVYYCAVRRSTGSRSPPMYYWGQGTQVTVSS” it was “high polyreactivity”.
For “QDQLVESGGGLVQAGGSLRLSCAASGFTFRDYTRGWYRQAPGKERELVAAISLSGGSTYYADSVKGRFTISRDNAKNTVYFQMNSLKPEDTAVYYCAAGYLLWRTWDYGAGHNFWGQGTQVTVSS”, the “polyreactivity (PSR sort gate)” value is recorded as “high polyreactivity”.
Take “QVQLVESGGGLVQAGGSLRLSCAASGRIFYRYAMGWSRPAHGKERELVASISGSGGRTYYADSVKGRFTISRDNAKNTVYLQMNSLKPEDTAVSYCAARIRPSYDWGQGTQVTVSS”: the “polyreactivity (PSR sort gate)” value was “high polyreactivity”.
In the case of “QVQLVESGGGLVQAGGSLRLSCASSGRTFRRYAMGWYRQAPGKERELVAAITWSGGSTYYADSVKGRFTFSRDYGKNTVYLQMNSLKPADTAEYYCAVSPLYSTSYYGLRKGYYWGQGTQVTVSS” it was “high polyreactivity”; in that of “QVQLVESGGGLVQAGGSLRLSCAASGFIFPNYAMGWYRQAPGKVRELVAAISVRGGNTYYADSVKGRFTISRDNAKNTVYLQMNSLKPEDTAVYYCNAVLRSGYFPEYYYWGQVTQVTVSS”, “high polyreactivity”.
On to “QVQLVESGGGLVQAGGSLRLSCAASGSTFRRNAMGWYRQAPGKERELVAAISRSGGSTYYADSEKGRFTISRDNAKNTVYLQMNSLKPEDTVVYYCAADAARTSHWSGDYWGQGTQVTVSS”, for which the “polyreactivity (PSR sort gate)” value is “high polyreactivity”.
With “QVQLVESGGGLVQAGGSLRLSCAASGSIFSYNAMGWYRQAPGKERELVAVITRGGSTYYADSVKGRFTISRDNAKNTVYLQMNSLKPEDTAVYYCAAGAHRRGYDYWGQGTQVTVSS”, the “polyreactivity (PSR sort gate)” value is “high polyreactivity”.
In the case of “QVQLVESGGGLVQAGGSLRLSCAASGSIFVPYAMGWYRQAPGKEREFVAVISLRGSRTYYADSVKGRFTISRDNAKNTVYLQMNSLKPEDTAVYYCATTGYRLRQATRYDYWGQGTQVTVSS” it was “high polyreactivity”; in that of “QVQLVESGGGLVQAGGSLRLSCAASGRTFGQYVMGWYRQAPGKERELVAAISSGDSTNYADSVKGRFTISRDNAKNTVYFQMNSLKPEDTAVYYCAAVYWVLWQGSTYGYWGQGTQVTVSS”, “low polyreactivity”; in that of “QVQLVESGGGLVHAGGSLRLSCAASGRIFTYYGMGWYRQAPGKERELVAAITWNGGSTYYADSVKGRFTISRDNAKNTVYLQMNSLKPEDTAVYYCNAVVYARSGGAQYGYWGQGTQVTVSS”, “low polyreactivity”.
On to “QVQLVESGGGLVQAGGSLRLSCAASGVIFEYTAMGGYRQAPGKERELVAAITSSGGSTYYADSVKGRFTISRDKAKNTVYLQMNSLKPEDTAVYYCARVRRSAYYQDYYSWGQGTQVTVSS”, for which the “polyreactivity (PSR sort gate)” value was “high polyreactivity”.
To “QVHLVESGGGLVQAGGSLRLRCAASGSISGRYAMGWYRQAPGKERELVAAISWIGGSTYYADSVKGRFTISRDNAKNTVYLQMNSLKPEDTAVYYCNVSIDTRTHPLLVVFYGYDYWGQGTQVSVSS” belongs “low polyreactivity”; to “QVQLVESGGGLVQAGCSLRLSCAASGLIFRSYAMGWYRQAPGKERELFARISIRGGSTYYADSVKGRFTISRDNAKNTVYLQMNSLKPEDTAVYYCAARPKNNWARTKYGIRYNYWGQGTQVTVSS”, “high polyreactivity”.
In the case of “QVQLVESGGGLVQAGGSLRLSCAASGRIFGPYAMGWYRQAPGKERELVAAISGRGSSTYYADSVKGRFTLSRDNAKNTVYLQMNSLKPEDTAVYYCAKYPTYSYDYWGQGTQVTVSS” it was “high polyreactivity”.
To “QVQLVETGGGLVQAGGSLRLSCAASGRTLTCYAMGWYRQAPGKERELVAAISWSGGSTYYADSVKGRFTISRDNAKNTVYLQMYSLIPEDTAVYYCAADRVRSYFSRYYSTPLDYYWGQGTQVTVSS” belongs “high polyreactivity”.

The record behind these values is the nanobody polyreactivity screen of Harvey et al. (2022).
